Source: paper PMC4195775 (The EMBO Journal, 2014)
Ends that are not written are not given here.

B1: GST-NT (recombinant GST-fused girdin NT) (domain or fragment, human, UniProt Q3V6T2 1-256, looked up)
chain: MENEIFTPLLEQFMTSPLVTWVKTFGPLAAGNGTNLDEYVALVDGVFLNQVMLQINPKLESQRVNKKVNNDASLRMHNLSILVRQIKFYYQETLQQLIMMSLPNVLIIGKNPFSEQGTEEVKKLLLLLLGCAVQCQKKEEFIERIQGLDFDTKAAVAAHIQEVTHNQENVFDLQWMEVTDMSQEDIEPLLKNMALHLKRLIDERDEHSETIIELSEERDGLHFLPHASSSAQSPCGSPGMKRTESRQHLSVELADA

How the values were obtained:
[1] = target: EGFRc-His (EGFR cytoplasmic domain, 669-1210) (UniProt P00533 669-1210); experiment: pull-down
[2] = target: B1; experiment: in vitro binding assay

B1: binds [1].

KLLMIIHDRREFAKFEKEKMNAKWDTGENPIYKSAVTTVVNPKYEGK (domain or fragment, UniProt P05556 752-798, looked up, also: His tag, position and length not given here) [ITGB1c-His (integrin β1 cytoplasmic domain, 752-798)]: binds [2].
